The experiment has as its target T1, human CD7 (human, UniProt P09564 26-240).
T1 construct: whole, on cells; also called CD7 antigen; CD7 on the surface of Jurkat, Molt4, CCRF-CEM and Hut78 cells
T1 sequence (looked up): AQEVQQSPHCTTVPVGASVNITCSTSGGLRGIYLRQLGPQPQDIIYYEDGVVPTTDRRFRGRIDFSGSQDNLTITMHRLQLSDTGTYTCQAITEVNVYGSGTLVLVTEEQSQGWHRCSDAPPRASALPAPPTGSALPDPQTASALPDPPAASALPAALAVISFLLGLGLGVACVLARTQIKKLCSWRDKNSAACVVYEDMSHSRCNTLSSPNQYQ
In words: FACS on Jurkat, Molt4, CEM and Hut78 cells that highly express human CD7; antibody at 0.15 µg/100 µl. As to the method:
Binding of the monoclonal antibody HIT7 in Example 1 and the commercialized CD7-6B7 antibody (Biolegend, PE/Cyanine7 anti-human CD7 antibody, clone number CD7-6B7) to CD7 on the surface of Jurkat, Molt4, CCRF-CEM, and Hut78 cells that highly expressed human CD7 was tested by FACS: The antibody was incubated at a concentration of 0.15 μg/100 μl with 2×10⁵ Jurkat, Molt4, CEM, and Hut78 cells respectively at 4° C. in dark for 30 minutes, washed twice with PBS, resuspended by 100 μl, and loaded for FACS test.

B1: monoclonal antibody HIT7 (antibody, V domains shown)
VH: QVQLQESGPGLVKPSQTVSLTCTVTGISITTGNYRWSWIRQFPGNKLEWIGYIYYSGIITYNPSRTSRTTITRDISKNQFFLEMNSLTAEDTATYYCARERGIYYDSLWYFDVWGAGTTVTVSS
VL: DIVLTQSPASLAVSLGQRATISCRASKSVSASGYSYMHWYQQKPGQPPKLLIYLASNLESGVPARFSGSGSGTDFTLNIHPVEEEDAVTYYCQHSRELPYTFGGGTKLEIKR
notes: also called CD7-HIT7 monoclonal antibody; mouse anti-human CD7 monoclonal antibody
Regarding B1, the binding result is “binds”.
